Biological target: human CD22-beta-ECD-His tagged soluble antigen (human) (UniProt P20273)
Experiment: SPR (BIACORE 3000), antibody coupled to the chip, soluble CD22-beta-ECD-His injected, 25 C

human CD22-beta-ECD-His tagged soluble antigen (human), sequence (P20273 other isoform, or with tags, fused parts or gaps): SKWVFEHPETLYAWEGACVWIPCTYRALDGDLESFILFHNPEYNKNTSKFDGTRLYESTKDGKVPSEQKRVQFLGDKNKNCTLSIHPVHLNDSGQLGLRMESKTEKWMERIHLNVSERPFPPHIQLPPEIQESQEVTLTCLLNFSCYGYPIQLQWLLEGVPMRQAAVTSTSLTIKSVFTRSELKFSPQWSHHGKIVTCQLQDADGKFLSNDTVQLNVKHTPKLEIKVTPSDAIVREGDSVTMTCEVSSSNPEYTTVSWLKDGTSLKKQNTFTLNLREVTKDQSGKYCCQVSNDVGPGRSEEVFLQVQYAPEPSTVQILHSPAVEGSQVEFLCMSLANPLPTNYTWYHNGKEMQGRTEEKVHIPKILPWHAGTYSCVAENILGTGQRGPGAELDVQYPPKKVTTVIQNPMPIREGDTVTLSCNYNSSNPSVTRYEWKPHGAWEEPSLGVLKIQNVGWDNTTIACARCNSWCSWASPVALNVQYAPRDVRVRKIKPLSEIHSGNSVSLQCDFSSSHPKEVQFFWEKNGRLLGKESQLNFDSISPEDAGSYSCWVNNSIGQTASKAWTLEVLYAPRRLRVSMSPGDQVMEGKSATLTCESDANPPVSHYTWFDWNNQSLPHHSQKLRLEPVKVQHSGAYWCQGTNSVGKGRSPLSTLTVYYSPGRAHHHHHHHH

B1: anti-CD22 antibody RFB4 (antibody, from another filing, V domains shown)
VH: EVQLVESGGGLVKPGGSLKLSCAASGFAFSIYDMSWVRQTPEKRLEWVAYISSGGGTTYYPDTVKGRFTISRDNAKNTLYLQMSSLKSEDTAMYYCARHSGYGSSYGVLFAYWGQGTLVTVSA
VL: DIQMTQTTSSLSASLGDRVTISCRASQDISNYLNWYQQKPDGTVKLLIYYTSILHSGVPSRFSGSGSGTDYSLTISNLEQEDFATYFCQQGNTLPWTFGGGTKLEIK
Which Kd does the source give for B1 here?
The Kd was 4.2 nM.

What about the koff of the same binder?
The koff was 0.00014 s⁻¹.

And the kon?
The kon was 33000 M⁻¹ s⁻¹.

— patent US20130171170A1
